Tests used:
Test in all cases: ELISA
Details in all cases: both partners purified
Pfs48/45 D2-3 [1] = biological target: T1, Pfs48/45 D2-3 (Plasmodium falciparum 3D7, UniProt Q8I6T1)
Pfs48/45 D1-2 [2] = biological target: T2, Pfs48/45 D1-2 (Plasmodium falciparum 3D7, UniProt Q8I6T1)
[3] = biological target: T3, recombinant full-length Pfs48/45 (Plasmodium falciparum 3D7, UniProt Q8I6T1)
Pfs48/45 D2-3 [4] = biological target: T1, Pfs48/45 D2-3; remark: listed apart in the source
Pfs48/45 D1-2 [5] = biological target: T2, Pfs48/45 D1-2; remark: listed apart in the source
[6] = biological target: T3, recombinant full-length Pfs48/45; remark: listed apart in the source

Measured: binding result

T3 sequence (Q8I6T1 28-428): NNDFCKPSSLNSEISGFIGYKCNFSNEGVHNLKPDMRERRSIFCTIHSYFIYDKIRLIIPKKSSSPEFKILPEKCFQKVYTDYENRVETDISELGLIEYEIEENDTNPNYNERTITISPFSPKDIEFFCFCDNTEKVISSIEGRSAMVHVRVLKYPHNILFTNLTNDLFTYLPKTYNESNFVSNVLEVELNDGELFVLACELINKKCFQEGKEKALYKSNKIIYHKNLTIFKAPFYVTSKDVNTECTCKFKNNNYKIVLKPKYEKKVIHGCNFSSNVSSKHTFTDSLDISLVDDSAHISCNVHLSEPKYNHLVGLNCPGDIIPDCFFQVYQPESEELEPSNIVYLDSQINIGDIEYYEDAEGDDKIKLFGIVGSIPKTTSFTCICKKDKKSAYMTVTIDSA
T2 sequence (Q8I6T1 28-289): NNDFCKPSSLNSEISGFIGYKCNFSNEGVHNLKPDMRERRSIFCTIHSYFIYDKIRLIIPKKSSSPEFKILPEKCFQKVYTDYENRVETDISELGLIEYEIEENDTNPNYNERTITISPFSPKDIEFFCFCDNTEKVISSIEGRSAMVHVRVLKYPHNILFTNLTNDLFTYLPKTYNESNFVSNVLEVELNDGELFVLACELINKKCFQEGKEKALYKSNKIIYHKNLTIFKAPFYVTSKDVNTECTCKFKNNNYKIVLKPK
T1 sequence (Q8I6T1 184-428): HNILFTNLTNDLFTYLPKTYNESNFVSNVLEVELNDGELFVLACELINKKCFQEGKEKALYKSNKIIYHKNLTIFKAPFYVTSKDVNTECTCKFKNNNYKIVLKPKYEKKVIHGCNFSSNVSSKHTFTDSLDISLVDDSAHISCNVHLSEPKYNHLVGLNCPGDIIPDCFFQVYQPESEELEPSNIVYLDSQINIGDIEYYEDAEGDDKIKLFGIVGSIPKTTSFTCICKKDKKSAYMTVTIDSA

B1: RUPA-74 (antibody, V domains shown)
VH: QVQLVQSGAEVKKPGASVKVSCKASGYNFLYHDINWVRQAPGQGLEWMGWMNPNTGNRGYAQQFQDRVSLTRDMSQGTAYMELRNLRSDDTAVYYCARGVGSLYGSGGWIDPWGQGTLVTVSS
VL: QSVLTQPPSASETPGQRVTISCSGSSSNIGSNTVNWYQQVPGTAPKLLMYNDNHRPSGVSDRFSGSKSGTSASLAISGLQSADEADYYCETWDDSLKRRVFGGGTKLTVL
notes: human IgG1; source: recombinant human IgG1, 293T (Protein A purified) or GenScript
binds: Pfs48/45 D2-3 [1] | Pfs48/45 D1-2 [2] | [3]

B2: RUPA-83 (antibody, V domains shown)
VH: QVQLVQSGAEVKKPGASVKVSCKASGYIFTDYGITWVRQAPGQGLEWLGWISGYSYNTNYALKFQGRVTMTTDTSTSVTYMELRNLRSDDTAVYYCARDSRSSQLLQKFDLWGQGTLVTVSS
VL: DIQLTQSPSSLSASVGDRVTITCRASQTTRNFLNWYQQKPGKAPELLIYAASTLQSGVPSRFSGSGSGTDFTLTIKNLQPEDFASYYCQQSFSSPTFGQGTKVEIK
notes: as for B1
binds: Pfs48/45 D2-3 [1] | Pfs48/45 D1-2 [2] | [3]

B3: RUPA-147 (antibody, V domains shown)
VH: QVQLVQSGAEVKKPGASVKVSCTASGYNFLTHDISWVRQATGQGLEWMGWMNPNTGKKGYVQKFQGRVTMDRDMSKSTAYMELRSLTSEDTAVYYCVRGVGSYYGSGGWFDPWGQGTLVTVSS
VL: QSVLTQPPSASETPGQKVTISCSGSSSNIGSDTVSWYVQLPGTAPKLLIYNDNQRPSRVPDRFSGSKSGTSASLAISGLQSEDEADYYCATWDASLKRRVFGGGTTLTVL
notes: as for B1
binds: Pfs48/45 D2-3 [4] | Pfs48/45 D1-2 [5] | [6]

B4: RUPA-148 (antibody, V domains shown)
VH: QVQLVQSGAEVKKPGASVKVSCTASGYNFLTHDISWVRQATGQGLEWMGWMNPNTGKKGYVQKFQGRVTMDRDMSKSTAYMELRSLTSEDTAVYYCVRGVGSYYGSGGWFDPWGQGTLVTVSS
VL: QSVLTQPPSASETPGQKVTISCSGSSSNIGSDTVSWYVQLPGTAPKLLIYNDNQRPPGVPDRFSGSKSGTSASLAISGLQSEDEADYYCATWDASLKRRVFGGGTTLTVL
notes: as for B1
binds: Pfs48/45 D2-3 [4] | Pfs48/45 D1-2 [5] | [6]

B5: RUPA-68 (antibody, V domains shown)
VH: QVQLVQSGAELKKPGASVKVSCKASGYTFTSHDITWVRQAAGQGLEWMGWMNPNTGDKGYAQKFQGRVTMTRNMSTRTAYMEVNSLTSEDTAVYYCARGVGTYHGAGGWFDPWGQGTLVTVSS
VL: QSVVTQPPSVSETPGQRVTISCSGSSSNIGSNIVSWYQQLPGTAPKLLIYSDNQRPSGVPDRFSASKSGTSASLAISGLQSEDEADYYCATWDDSLKRGVFGGGTKLTVL
notes: as for B1
binds: Pfs48/45 D2-3 [1] | Pfs48/45 D1-2 [2] | [3]

B6: RUPA-143 (antibody, V domains shown)
VH: QVQLVQSGAEVKKPGASVKVSCKASASTIANFAVSWVRQAPGQGLEWMGWISVYNVKTGDVKYAPKFQGRVTLTIDTATSTASMELRSLRFDDTAVYYCARANWYDNVWQEYFYGMDVWGQGTTVTVSS
VL: DIQMTQSPLTLSASVGDRVTITCRASQSVSRFLAWYQQKPGKAPKLLMYKVSNLESGVPSRFSGSGFGTQFTLTISSLQPDDFATYYCQHYDAYPWTFGQGTKVEIK
notes: as for B1
binds: Pfs48/45 D2-3 [4] | Pfs48/45 D1-2 [5] | [6]

B7: RUPA-65 (antibody, V domains shown)
VH: QVQLVQSGAEVKKPGASVKVSCKASGYTFLYHDIIWMRQATGQGPEWMGWINPNTGNTGHAQKFQGRVTLTRNMSSGTAYMELRSLRSEDTAVYYCARGVGTYHGSGGWFDPWGQGTLVTVSS
VL: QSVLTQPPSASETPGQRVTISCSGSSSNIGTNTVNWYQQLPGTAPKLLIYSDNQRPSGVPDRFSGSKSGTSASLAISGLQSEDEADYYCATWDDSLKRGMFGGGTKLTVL
notes: as for B1
binds: Pfs48/45 D2-3 [1] | Pfs48/45 D1-2 [2] | [3]

B8: RUPA-161 (antibody, V domains shown)
VH: QVQLVQSGAEVKKPGASVKVSCKASGYTFLYHDIIWMRQATGQGPEWMGWINPNTGNTGLAQKFQGRVSLTRNMSSGTAYMELRSLRSEDRAIYYCARGVGTYHGSGGWFDPWGQGTLVTVSS
VL: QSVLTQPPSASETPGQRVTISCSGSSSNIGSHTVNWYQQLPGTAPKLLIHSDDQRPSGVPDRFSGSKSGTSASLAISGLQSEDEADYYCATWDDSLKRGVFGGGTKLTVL
notes: as for B1
binds: Pfs48/45 D2-3 [4] | Pfs48/45 D1-2 [5] | [6]

B9: RUPA-149 (antibody, V domains shown)
VH: EVQLVESGGGVVQPGGSLRLSCAASGFTFSNFGMHWVRQAPGKGLEWVAKISYDGSNKYYADFVKGRFTISRDKATNTVHLQMNSLSAEDRGIYYCAKDKVFGVVANHHQYGLDVWGQGTTVTVSS
VL: DIQMTQSPASLSASVGDRVTITCRASQNIHLYLHWYQQKPGKAPELLIFTTNTLHRGVPSRFRGSGSGTEFALTISDLQPEDFATYYCQQSYTTPHFTFGQGTKLEIK
notes: as for B1
binds: Pfs48/45 D2-3 [4] | Pfs48/45 D1-2 [5] | [6]

B10: RUPA-150 (antibody, V domains shown)
VH: QVQLQQWGAGLLKPSETLSLTCLVNGGSFSDYYWSWIRQPPGRGLEWIGDVNHSGTTNHRPSLQSRVTLSLDMSKNQFSLKLTSVTAADTAVYFCARRSSGYYRGSRYTGWFDPWGQGTLVTVSS
VL: EIVMTQSPATLSVSPGERATLSCRASQSVSSNLAWYQQKPGQTPRLLIYGSSTRATGIPARFSGSGSGTEFALTISSLQSEDFAVYYCQQYNNWPPPWTFGQGTKVEIK
notes: as for B1
binds: Pfs48/45 D2-3 [4] | Pfs48/45 D1-2 [5] | [6]

B11: RUPA-153 (antibody, V domains shown)
VH: QVQLQESGPGLVKPSQTLSLTCTVSGSSVSSGGYYWSWIRQHPGKGLEWIGYLYYSGNTGNTFYNPSLKSRVTISADPSKNQFSLELSSVTAADTAMYYCARAVGVGRYFGYFPSWGLGTLVTVSS
VL: EIVMTQSPATLSVSPGERATLSCRASQSVSSNLAWYQQKPGQTPRLLIYGSSTRATGIPARFSGSGSGTEFALTISSLQSEDFAVYYCQQYNNWPPPWTFGQGTKVEIK
notes: as for B1
binds: Pfs48/45 D2-3 [4] | Pfs48/45 D1-2 [5] | [6]

B12: RUPA-81 (antibody, V domains shown)
VH: EVQLVATGGGLIQPGGSLRLSCTASGFNVSRMYMSWVRQAPGKGLEWVSVIYSDSSGGSTYYTDSLKGRFIISRDNSQNTLYLQMNSLRVDDTAIYYCARDVRGWGYLDFWGQGTLVTVSS
VL: EIVLTQSPGTLSLSPGERAALSCRASQGVSSSFFAWYQQKPGQAPRLLIYGASSRATGIPDRFSGSGSGTDFTLTISRLEPEDFATYYCQQYGYSPWTFGQGTKVEIK
notes: as for B1
binds: Pfs48/45 D2-3 [1] | Pfs48/45 D1-2 [2] | [3]

B13: RUPA-63 (antibody, V domains shown)
VH: QVQLVQSGAEVKKTGASVKVSCKASGYTFTSHDIIWVRQAAGQGLEWMGWMNPNTGKKGYAQRFQGRITLTRNMSTGTAYMELGSLRSDDSAIYYCARGVGTYYGSEGWLDPWGQGTLVTVSS
VL: QSVLTQPPSASETPGQRVTISCSGSSSNVGSNTVNWYQQLPGTAPKLLMYNTNQRPSGVPDRFSGSKSGTSASLAISGLRSEDEADYYCAAWDDSLKRGVFGGGTRLTVL
notes: as for B1
binds: Pfs48/45 D2-3 [1] | Pfs48/45 D1-2 [2] | [3]

B14: RUPA-151 (antibody, V domains shown)
VH: QVQLVQSGAEVKKTGASVKVSCKASGYTFTSHDIIWVRQAAGQGLEWMGWLNPNTGKKGYVEKFQGRVMLTRNMSTGTAYMELSSLRSDDSAIYYCARGVGTYHGSEGWLDPWGQGTLVTVSS
VL: QSVLTQPPSASETPGQGVTISCSGSSSNVGSNAVNWYQQLPGRAPKLLMYNTNQRPSGVPDRFSGSKSGTSASLAISGLRSADEADYYCAAWDDSLKRGVFGGGTKLTVL
notes: as for B1
binds: Pfs48/45 D2-3 [4] | Pfs48/45 D1-2 [5] | [6]

B15: RUPA-84 (antibody, V domains shown)
VH: QVQLVQSGAEVKKTGASVKVSCKASGYTFTSHDIIWVRQAAGQGLEWMGWMNPNTGKKGYAQKFQGRVTLTRNMSTGTAYMELNSLRSDDSAVYYCARGVGTYYGSEGWLDPWGQGTLVTVSS
VL: QSVLTQPPSASETPGQRVTISCSGSSSNVGSNSVNWYQQLPGTAPKLLMYNTNQRPSGVPDRFSGSKSGTSASLAISGLRSEDEADYYCATWDDSLKRGVFGGGTKLTVL
notes: as for B1
binds: Pfs48/45 D2-3 [1] | Pfs48/45 D1-2 [2] | [3]

B16: RUPA-113 (antibody, V domains shown)
VH: QVQLVQSGAELKKPGASVKVSCKASGYTFTSHDITWVRQAPGQGLEWMGWMNPNTGDRGYARNFQGRLTLTRDMSISTAFMVLSSLRPEDTAVYYCTRGVGTYHGAGGWFDPWGQGTLVSVSS
VL: QSVLTQPPSASETPGQRVTISCSGSSSNIGSNIVSWYQQLPGTAPKLLIYNNNQRPSGVPDRFSGSQSGTSASLAISGLQSEDEADYYCATWDDSLERGVFGGGTKLTVL
notes: as for B1
binds: Pfs48/45 D2-3 [4] | Pfs48/45 D1-2 [5] | [6]

B17: RUPA-144 (antibody, V domains shown)
VH: QVQLVQSGAEVKKTGASVKVSCKASGYTFTSHDIIWVRQAAGQGLEWMGWMNPNTGKKGYVQKFQGRVMLTRNMSTGTAYMELSSLRSDDSAVYYCARGVGTYYGSEGWLDPWGQGTLVTVSS
VL: QSVLTQPPSASETPGQRVTISCSGSSSNVGSNTVNWYQQLPGTAPKLLMYNTNQRPSGVPDRFSGSKSGTSASLAISGLRSDDEADYYCATWDDSLKRGVFGGGTKLTVL
notes: as for B1
binds: Pfs48/45 D2-3 [4] | Pfs48/45 D1-2 [5] | [6]

From paper PMC9942873 (Immunity, 2023)
